Laboratory results taken from patent US11732043.
Like-named read-outs stand apart in the source and are kept apart here.

What was measured:
[1] = biological target: human LAG-3 (huLAG-3), full length, expressed on the cell surface (human) (UniProt P18627)
[2] = biological target: human LAG-3 (huLAG-3), full length, expressed on the cell surface (human) (UniProt P18627); remark: listed apart in the source
[3] = biological target: human LAG-3 (huLAG-3), full length, expressed on the cell surface (human) (UniProt P18627); experiment: method of determination not stated; legend of the FACS binding figure (293FF-LAG-3 cells, activated human T-cells)
[4] = biological target: human LAG-3 (huLAG-3), full length, expressed on the cell surface (human) (UniProt P18627); experiment: FACS titration on activated human T cells, detection with PE-labelled anti-IgG F(ab')2 [right panel Activated T cells]

Chain of human LAG-3 (huLAG-3), full length, expressed on the cell surface (human) (P18627 23-525): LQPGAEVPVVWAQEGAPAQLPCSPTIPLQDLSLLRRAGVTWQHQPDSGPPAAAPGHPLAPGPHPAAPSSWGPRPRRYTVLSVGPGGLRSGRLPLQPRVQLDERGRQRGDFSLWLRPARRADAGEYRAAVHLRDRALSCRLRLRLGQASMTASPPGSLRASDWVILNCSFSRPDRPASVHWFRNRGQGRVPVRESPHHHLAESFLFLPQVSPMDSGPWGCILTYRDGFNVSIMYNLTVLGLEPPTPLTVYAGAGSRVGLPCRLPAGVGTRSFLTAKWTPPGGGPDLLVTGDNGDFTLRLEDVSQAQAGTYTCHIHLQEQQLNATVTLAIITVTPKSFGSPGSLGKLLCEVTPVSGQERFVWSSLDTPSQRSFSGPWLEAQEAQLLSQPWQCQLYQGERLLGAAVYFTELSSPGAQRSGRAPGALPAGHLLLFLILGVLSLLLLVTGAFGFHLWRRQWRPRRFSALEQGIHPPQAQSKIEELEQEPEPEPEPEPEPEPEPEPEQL

Substance “PG7431, anti-LAG-3 antibody 25F7 produced in a human IgG1 format” has an EC50 (read off the curve) [1] of 0.1 µg/mL, an EC50 (read off the curve) [2] of 0.1 µg/mL and a Kd [3] of 0.2 nM. For the same substance, the EC50 (read off the curve) [4] was 0.04 µg/mL.
